Several values for one entry are separate records, joined by “and”; a condition that tells them apart may be missing. Equal entries are not always repeated. Where two headings read alike, the source gives them in different places.
How the values were obtained:
[1] = biological target: T1, enzymatically active free PSA (York PSA) (Homo sapiens, UniProt P07288); test: Recognition/cleavage of oligopeptide-vinca drug conjugates by free PSA (HPLC); assay type: biochemical; settings: for Time to 50% Substrate Cleavage by York PSA: conjugate to PSA molar ratio 100 to 1, pH7.4 buffer
T1 construct: 50% cleavage of the noted. oligopeptide-cytotoxic agent conjugates with enzymatically active free PSA were then calculated; purchased York
Description: The conjugates prepared as described in Example 3 were individually dissolved in PSA digestion buffer (50 mM tris(hydroxymethyl)-aminomethane pH7.4, 140 mM NaCl) and the solution added to PSA at a molar ration of 100 to 1. Alternatively, the PSA digestion buffer utilized is 50 mM tris(hydroxymethyl)-aminomethane pH7.4, 140 mM NaCl. The reaction was quenched after various reaction times by the addition of trifluoroacetic acid (TFA) to a final 1% (volume/volume). Alternatively the reaction is quenched with 10 mM ZnCl2. The quenched reaction was analyzed by HPLC on a reversed-phase C18 column using an aqueous 0.1 % TFA/acetonitrile gradient. The amount of time (in minutes) required for 50% cleavage of the noted. oligopeptide-cytotoxic agent conjugates with enzymatically active free PSA were then calculated.

[2] = biological target: T1, enzymatically active free PSA (York PSA); test: as above; assay type: biochemical
[3] = test system: LNCap prostate tumor cells; test: In vitro cytotoxicity, Alamar Blue assay, LNCaP cells; assay type: cell-based; settings: read-out: LNCaP Cell Kill in 72 HRS EC 50
Description: (§1) Specifically, cell cultures of LNCap prostate tumor cells, Colo320DM cells (designated C320) or T47D cells in 96 well plates was diluted with medium containing various concentrations of a given conjugate (final plate well volume of 200 μl). […] The cells were incubated for 3 days at 37° C., 20 μl of Alamar Blue is added to the assay well. The cells were further incubated and the assay plates were read on a EL-310 ELISA reader at the dual wavelengths of 570 and 600 nm. at 4 and 7 hours after addition of Alamar Blue. Relative percentage viability at the various concentration of conjugate tested was then calculated versus control (no conjugate) cultures and an EC50 was determined. Unless otherwise indicated, the acetate salt of the conjugate was tested.

Colo320DM cells = test: In vitro cytotoxicity, Alamar Blue assay, Colo320DM control cells (do not express free PSA); assay type: cell-based; settings: 72 HRS, read-out: Colo320DM cell kill EC 50 (in parentheses)
Description: as §1

T1 sequence (P07288 25-261): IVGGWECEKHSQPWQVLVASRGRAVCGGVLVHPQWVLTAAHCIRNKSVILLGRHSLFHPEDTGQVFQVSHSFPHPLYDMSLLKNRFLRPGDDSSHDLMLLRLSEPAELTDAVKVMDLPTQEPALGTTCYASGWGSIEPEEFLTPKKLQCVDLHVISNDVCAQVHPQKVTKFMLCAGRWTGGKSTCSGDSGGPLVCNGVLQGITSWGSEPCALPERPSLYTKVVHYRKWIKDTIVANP

Molecule	Time to 50% Substrate Cleavage by York PSA [1]	Substrate cleavage by York PSA at 1 HOUR [1]	other results
4-O-(Ac-3-Pal-SSChgQ(dS)-P)-dAc-VIN (XSSXQXP; D-residues; non-natural residues)			Substrate cleavage by York PSA at 3 HOURS ([1]; 3 HOURS): 3 HOURS = 0%
4-O-(Ac-SSChgQ-SS-P)-dAc-VIN (XSXQSSP; non-natural residues)	15 min		
4-O-[(2-OH)Ac-SChgQSS-Sar]-dAc-VIN (XXQSSX; N-methyl; non-natural residues)		1 HOUR = 4%	
4-O-[Ac-4-trans-L-HypSSChgQ-(dS)SP]-dAc-VIN			Time to 50% Substrate Cleavage by York PSA, 10 X ENZ [2]: 6 HOURS (10 X
4-O-[Ac-SChgQS-Aib-P]-dAc-VIN		1 HOUR = 8%	
4-O-[Ac-SChgQSS-Aib-P]-dAc-VIN	15 min and 23 min		
4-O-[Ac-SChgQSS-Pip]-dAc-VIN	15 min		
4-O-[Ac-SSChgQ-S(dS)-4-trans-L-Hyp]-dAc-VIN		1 HOUR = 14%	
CC[C@]1(O)C[C@H]2CN(CCc3c([nH]c4ccccc34)[C@@](C(=O)OC)(c3cc4c(cc3OC)N(C)[C@H]3[C@@](O)(C(=O)OC)[C@H](OC(=O)CNC)[C@]5(CC)C=CCN6CC[C@]43[C@@H]65)C2)C1 [4-O-sarcosyl-(dAc)-VIN]			EC50 ([3]; 72 HRS): 1300 nM; EC50 (Colo320DM cells): 1800 nM
CCC1(O)CC2CN(CCc3c([nH]c4ccccc34)C(C(=O)OC)(c3cc4c(cc3OC)N(C)C3C(O)(C(=O)OC)C(OC(=O)C5CC(O)CN5)C5(CC)C=CCN6CCC43C65)C2)C1 [(4-O-4-trans-L-Hyp)-dAc-VIN]			EC50 ([3]; 72 HRS): 600 nM; EC50 (Colo320DM cells): 1100 nM
CC[C@]1(O)C[C@@H]2CN(CCc3c([nH]c4ccccc34)[C@@](C(=O)OC)(c3cc4c(cc3OC)N(C)[C@H]3[C@@](O)(C(=O)OC)[C@H](OC(C)=O)[C@]5(CC)C=CCN6CC[C@]43[C@@H]65)C2)C1 [VINBLASTINE, reference compound]			EC50 ([3]; Homo sapiens, LNCaP, 72 h): 500 nM; EC50 (Colo320DM cells; Homo sapiens, COLO 320DM): 500 nM
(4-O)-Ac-(4-trans-L-Hyp)SSChgQ-SL-(dAc)-VIN (XSSXQSL; non-natural residues)	35 min		
Ac-AbuSSChgQ-(dS)-(4-O-P)-dAc-VIN		1 HOUR = 0%	

Source: patent US20040081659A1, “Conjugates useful in the treatment of prostate cancer” (Merck & Co., Inc., priority 1997, published 2004)
